# Measurements published in patent US20090325168A1 (ONCOIMMUNIN, published 2009).
# Square brackets hold non-standard residues; d marks the D form. Ends that are not written are not given here. * marks the point of attachment. 5‑TMR = 5'-carboxytetramethylrhodamine, CN(C)c1ccc2c(-c3ccc(C(=O)*)cc3C(=O)[O-])c3ccc(=[N+](C)C)cc-3oc2c1; rhodamine X acetamide = R492, linked via the cysteine sulfhydryl; Fmoc = O=C(OCC1c2ccccc2-c2ccccc21)*; Nle = CCCC[C@H](N)C(=O)O; Aib = CC(C)(N)C(=O)O; Ahx = NCCCCCC(=O)O
# T1: CPP32 protease (human (Jurkat cells), UniProt P42574 29-277)
# T1 sequence (looked up): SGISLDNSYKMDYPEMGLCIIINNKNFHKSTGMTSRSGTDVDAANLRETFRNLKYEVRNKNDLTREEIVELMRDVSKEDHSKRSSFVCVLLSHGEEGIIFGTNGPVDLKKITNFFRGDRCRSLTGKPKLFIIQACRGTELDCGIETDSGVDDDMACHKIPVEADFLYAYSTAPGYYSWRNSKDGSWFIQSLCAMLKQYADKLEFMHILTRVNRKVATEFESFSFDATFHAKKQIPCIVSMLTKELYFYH
# Legend:
# [1] = target: T1, CPP32 protease; assay: cell-based or functional assay
# [2] = target: elastase; assay: cell-based or functional assay
Binder,increase in fluorescence intensity in anti-Fas-activated Jurkat cells (flow cytometry) [1],increase in fluorescence at 589 nm after treatment with elastase [2],increase in fluorescence within the first 1000 seconds of exposure to elastase [2]
"Fmoc-K(carboxytetramethylrhodamine)D[Aib][Ahx]GDEVDGIDG[Ahx]PK(carboxytetramethylrhodamine)GY [Fm-CGD2D, Fm-K[F1]DBJGDEVDGIDGJPK[F1]GY (compound 11 of Table 12)]",≤ 10 fold,,
"{5‑TMR}-DAIP[Nle]SIPC(rhodamine X acetamide) [D-NorFES-A protease indicator, F1-Asp-Ala-Ile-Pro-Nle-Ser-Ile-Pro-Cys-F2]",,> 10 fold,> 5 fold
